Experiments:
Conditions in all cases: both partners purified
Recombinant human TREM2 [1] = molecular target: T1, Recombinant human TREM2 (human, UniProt Q9NZC2 19-174); assay: ELISA; competition: human TREM2 (40 nM) coated; 6 nM ApoE ε3 with 0-6 μM ApoE-mim149 or scrambled peptide, 1 h at RT; bound full-length ApoE detected with polyclonal anti-ApoE; one site-fit Ki
T1 construct: Triggering receptor expressed on myeloid cells 2 (TREM2), human, recombinant; As I recall, this catalogue item is the extracellular domain with a C-terminal His tag; also called triggering receptor expressed on myeloid cells 2; hTREM2; source: bought: Sino Biological Inc. (#11084-H08H)
T1 sequence (looked up): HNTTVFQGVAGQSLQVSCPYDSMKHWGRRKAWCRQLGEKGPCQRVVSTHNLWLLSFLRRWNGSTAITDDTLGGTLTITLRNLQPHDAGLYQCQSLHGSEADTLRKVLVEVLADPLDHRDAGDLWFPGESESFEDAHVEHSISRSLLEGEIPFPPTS

Recombinant human TREM2 [2] = molecular target: T1, Recombinant human TREM2; assay: ELISA; competition: human TREM2 (40 nM) coated; 6 nM ApoE ε4 with 0-6 μM ApoE-mim149 or scrambled peptide, 1 h at RT; bound full-length ApoE detected with polyclonal anti-ApoE; one site-fit Ki
Recombinant human TREM2 [3] = molecular target: T1, Recombinant human TREM2; assay: ELISA; competition: human TREM2 (40 nM) coated; 6 nM ApoE ε2 with 0-6 μM ApoE-mim149 or scrambled peptide, 1 h at RT; bound full-length ApoE detected with polyclonal anti-ApoE; one site-fit Ki

- Ki (Recombinant human TREM2 [1]): 475 nM
- Ki (Recombinant human TREM2 [2]): 1540 nM
- Ki (Recombinant human TREM2 [3]): 827 nM
B1: ApoE-mimetic peptide corresponding to amino acids 130–149 (peptide)
peptide: Ac-TEELRVRLASHLRKLRKRLL-NH2
notes: also called ApoE-mim149; source: synthetic peptide, bought: GenScript

Reference: PMC5360024, “The Alzheimer’s disease risk factors apolipoprotein E and TREM2 are linked in a receptor signaling pathway” (Journal of Neuroinflammation, 2017)
